Results published in the nanobody polyreactivity screen of Harvey et al. (2022).

Assay: yeast display, Sf9 membrane polyspecificity reagent, FACS + sequencing; frameworks hold sequencing errors
Summary of the method: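 After 36–48 hours of galactose induction, yeast (Saccharomyces cerevisiae BJ5465) displaying a synthetic nanobody library were stained at 4 °C for 1 hour with 10% biotinylated, detergent-solubilized Sf9 membrane reagent. Streptavidin microbeads enriched the stained cells before FACS sorting into low and high (top ~1%) gates on anti-HA and streptavidin fluorescence. Each clone's polyreactivity label reflects its gate of origin.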

| Sequence | polyreactivity (PSR sort gate) |
| --- | --- |
| QVQLVESGGGLVQAGGSLRLSCAASGSIFTYYAMGWYRQAPGKERELVAAISYSGGTTYYADSVKGRFTISRDNAKNTVYLQMYSLKPEDTAVYYCNVDADYESEWLSVGYDYWGQGTQVTVSS | low polyreactivity |
| QVQLVESGGGLVQAGGSLRLSCAASGITFSFYAMGWYRPAPGKERELVAAINGRGGRTYYADSVKGRFTISRDNAKNTVYLQMNSLKPEDTAVYYCAAVVWRTDYDYWGQGTQVTVSS | low polyreactivity |
| QVHLVESGGGLVHAGGSLRLSCAASGSTFYPYAMGWYRQAPGKERELVAAISISGTTYYADSVKGRFTISRDNAKNTVYLQMNCLKPEDTAVYYCAKRAWVRRYPGRVGYNMYYWGQGTQVSVSS | high polyreactivity |
| QVQLVESGGGLVQAGGSLRLSCAASGFIFGANAMGWYRQAPGKERELVADINRGSTYYADSVKGRFTISRDNAKNTVYLQMNSLKPEDTAVYYCNRVYTQTFNPWGFEYWGQGTQVTVSS | high polyreactivity |
| QVQVVESGGGLVQAGGSLRLSCAASGYIFDYYAMGWYRQAPGKERELVAAISSSGGTTYYADSVKGRFTISRDNAKNTVYLQMNSLKPEDTAVYYCAADAVLPRSDYWGQGTQVTVSS | high polyreactivity |
| QVQLVESGVGLVQAGGSLRLSSADSGRTSPGNAMGWYRQAPGKETELVAAINVSGGSTYYADSVKGRFTISRDNAKNTVYLQMNSLKPEDTAVYDCATDTGYPYSYDLYDSYYWGQGTQVTVSS | low polyreactivity |
| QVHLVESGGGLVQAGGSLRLSSAASGSIFDGNGMGWYRQAPGKERELVASISGDGSTNYADSVKGRFTISRDNAKNTVYLQMNSLKPEDTAVYYCNARSYLTRPWWWGGPYDYWGQGTKVTVSS | low polyreactivity |
| QVQLVESGGGLVQAGGSLRLSCAASGNTFGENAMGWDRQAPRKETELVAAITYGGTTNYADSVKGRFTISRDNAKNTVYLQMNSLKPEDTAVYYCNAKFGISQPGHSGLLKMDYWGQGTQVTVSS | low polyreactivity |
| QVQLVESGGGLVQAGASLRLSCAASGFTFDENAMGWYRQAPGINYSGASTYYAHSVKGRFTISRDNAKNTVYIHMNSLQPEDTAVYYCAAEVVAQMNYWGQGTQVTVSS | low polyreactivity |
| QVQLVESGGGLVQAGGSIRLSCAASGFTFAKYSMGWYRQAPVKERELVATITRGGNTYYADSVKGRFTISRDNAKNTVYLQMNSLKPEDTAVYYCAASWYRFSQYKYYYWGQGTKVTVSS | high polyreactivity |
| QVQLVESGGGLVQAGGSLRLSCAASGSIFSTNAMGWYRQAPGKERELVAVITGIGGITYYADSVKGRFTISRDIAKNTVYLQMNSLIPEDTAVYYCAVGYWDSRYRYDLPNSDYWGQGTEVTVSS | low polyreactivity |
| QVQLVESGGGLVQAGGSLRLSCAASGSTFSNVMGWYRQAPGKEREFVARISKSGGSTYYADSVKGRFTISRDNAKNSVYLQMNSLKPEDTAVYYCATGRFRRTEYGGRYDYWGQGTKVTVSS | high polyreactivity |
| QVQLVESGGGLVQAGGSLRLSCAASGRIFGLYAMGWYRQAPGKERELVAAISRGGGSTYYADSVKGRFTISRDNAKNTVYLQMNSLKPEDTAVYYCATGLGYFSRLDYWGQGTLVTVSS | low polyreactivity |
| QVQLVESGGGLVQAGGSLRLSCAASALTFGSNAMGWYRQAPGKERELVAAISRSGGTTYYADSVKGRFTISRDNAKNTVYLQMNSLKPEDTAVYYCATRPYSPWRHYYWGQGTQVTVSS | high polyreactivity |
| QGQLVESGGGLVQAGGSLRLSCAASVFTFAFYTMGWYRQATGKERELVAANTRSGGSTYYPDSVKGRFTISRDNAKNTVYLQRNSLKPEDTPVYYCAARGNTPRTRRYGYWGQGTQVTVSS | high polyreactivity |
| QVQLVESGGGLVQAGGSLRLSCAASGGTFRVYVMGWYRQAPGKERELVADISRGGGSTYYADSVKGRFTISRDNAKNTVYLQMNSLKPEDTAVYYCAARVCRYPWRASEYDYWGQGTQVTVSS | high polyreactivity |
| QVQLVESGGGLVQAGGSLRLSCAASGLIFSFYDMGWYRQAPGKEREFVAAISGSGGSTYYADSVKGRFTISRDNEKNTVYLHMNILKPEDTAVYYCAAEYFTFYWKLDYWGQGTQVTVSS | high polyreactivity |
| QVQLVESGGGLVQAGGSLRLSSAASGITFYYYAMGWYRQAPGKERELVAAINWSGTSTYYADSVKGRFTISRDNAKNTVYLQMNSLKPEDTAVYYCNAERGRSFWWAYDYWGQGTQVTVSS | low polyreactivity |
| QVQLVESGGGLVQAGGSLRLSSAASGITFYLYAMGWYRQAPGKERELVAGISSGGSTNYADSVKGRFTISRDNAKNTVYLQMNSLKPEDTAVYYCAAKLRGYRYGYWGHGTQVTVSS | high polyreactivity |
| QVQLVESGGGLVQAGGSLRLSCAASGSTFAANAMGWYRQAPGKERELVAAITSSGGSTYYADSVKGRFTISRDNAKNTVYLQLNSLKPEVTAVYYCNKDIERYVRIYDSWGQGTQVTVSS | low polyreactivity |
| QVQLVESGGGLVQAGGSLRLSCAASGFSFLQYVMGWYSQAPGKERELFAAITSGGSTYYADSVKGRFTISRDNAKNTVYLQMNSLKPDDTAVYYCATDVADNTFYALYGSDYWGQCTQVTVSS | low polyreactivity |
| QVQLVESGGGLVEAGGSLRLSCDASGRIFYSNAMGWSRQAPGKERELVATITRSSGITYYADSVKGRFTISRDNAKNTVYLQMNSLKPEDTAVYYCAAPWYYYGYWGQGTQVTVSS | high polyreactivity |

| Sequence | polyreactivity (PSR sort gate) |
| --- | --- |
| QVQLVDSGGGLVQAGGSLRLSCAASGLIFDVYAMGWYRQAPGKERELVAVISSDGGTYYADSVKGLFTISRDNAKNTVYLQMISLKPEYTAVYYCAARRWREGARYSYWGQGTQVTVSS | high polyreactivity |
| QVQLVESGGGLVQARGSLRLSCAASGSIFIRNAMGWYRQAPGKERELVAAISTIGGRTYYADSVKGRFTISRDNAKNTVYLQMNSLKPEDTAVYYCAAEQGTPSTNWYDYWGQGTQVTVSS | low polyreactivity |
| QVQLVESGGGLVQAGGSLRLSCAASGSTSARYAMGWYRQAPGKERELVATITRSGTTKYADSVKGRFTISRDNAKNTVYLQMNSLKPEDTAVYYCNSDTYFPLYDYWGQGTQVTVSS | low polyreactivity |
| QVQLVESVGGLVQAGGSLRLSSAASGRIFSYKVMGWYRQAPGKESELVAAITSNDGSTYYADSVKGRFTISRDNAKNTVYLQMNSLKPVDTADYYCNADYGPVSLNEPFRDDYWGQGTQVTVSS | low polyreactivity |
| QVQLLESGGGKVQAVGSLRLSCAASGSIDDWYAMGWYRQAPGKERELLAAINEGGGSTYYADSVKGRFTISRDNAKNTVYFQMNILKPEDTAFYYCNAELSFRYPVFRELDYWGQGSQVTVSS | low polyreactivity |
| QVQLVESGGGLDQAGGSLRLSCAASGSTFYFYAMGWYRQAPGKEMELVAVISSGGRTYYADSVKGRFTISRDNAKNTVYLQMNSLKPEDTAVYYCAASWPSSLTYYYWGQGTQVTVSS | low polyreactivity |
| QVQLVESGGGLVQAGGSLRLSCAASGIIFRSYAMGWYRQAPGKERELVAAITRSGGSTYADSVKGRFTISRDNAKNTVYLQMTSLKPEDTAVYYCAADRYSGWVYRRDYWGQGTQVTVSS | low polyreactivity |
| QVQLVESGGGLVQAGGSLRLSCAASGIIFIFYDMGWYRQAPGKERELVATITSGTNTDADSVKGRFTISRDNAKNTVYLQMNSLKPEDTAVYYCAAGFSPASQLDYWGQGTQVTVSS | low polyreactivity |
| QVQLVESGGGLVQAGGSLRLSCAASGFTFRWYTMGWYRQAPGKERELVAAISWSGTSTYYADSVKGRFTISRDNAKNTVYLQMNSLKPEDTAVYYCAAADFYYTGADDYWGQGTQVTVSS | high polyreactivity |
| QGQLVESGGGLVQAGGSLRLSCAASGSTFRNYAMGWYRQAPGKERELVAAISGSGGRTNYADSVKGRFTISRDNAKNTVYLQMNSLKPEDTAVYYCNARFPDWALSEISLSTTYGYWGQGTQVTVSS | low polyreactivity |
| QVQLVESGGGLVQAGGSLRLSCAASGSIFDLNAMGWYRQAPGKERELGAAISSGGGTYYADSVKGRFTISRDNAKNTVYLQMNSLKPEDTAVYYCNRVTSWTYNYWGQGTQVTVSS | high polyreactivity |
| QVQLVESGGGLVQAGGSLRLSCAASGFVYYVMGWYRQAPGKERELVAAISKGGGRTYYADSVKGRFTISRDNAKNTVYLQMNSLKPEDTAVYYCNADGGLPKYDYWGQGTQVTVSS | high polyreactivity |
| QVQLVESGGGLVQAGGSLRLSCAASGRIFYWNTMGWYRQAPGKEREFVAAILSRGDTTYYADSVKGRFTISRDNAKNTVYLQMNSLKPEDTAVYYCAARPVRYHYVPSMYYWGQGTQVTVSS | high polyreactivity |
| QVQLVESGGGLVQAGGSLRLSCAATGLIFRSYAMGWYRQAPGKDRELVARISIRGGSTYYADSVKGRFTISRDNAKNTGSLQMNSLKPEDTAVYYCAAVGSFRGYRYDYWGQGTQVTVSS | high polyreactivity |
| QVQLVESGGGLVQAGGSLRLSCAASGRIFWGYAMGWYRQAPGKERELVARITSGGDTYYADSVKGRFTISRDNAKNTVYLQMNSLKPEDTAVYYCAISTAVKPYAYRESGFIYDYWGQGSQVTVSS | low polyreactivity |
| QVQLVESGGGLVQAGGSLRLSCAASGSIFAAYTMGWYRQAPGKERELVATISSGGSTYYADSVKGRFTISRDNAKNTVYLQMNSLKPEDTAVYYCAAVAYTYTEYEYWGQGTQVTVSS | low polyreactivity |
| QVQLVESGGGLVQAGGSLRLSSAASGRTFHANAMGWYRQAPGKERELVARINWSGTSTYYADSVKGRFTISRDNAKNTVYLQMNSLKPEDTAVYYCAAGWIRLYSSLYDYWGQGTQVTVSS | high polyreactivity |
| QVQLVESGGGLVQAGGSLRLSCAASGFTFRWYAMGWYRQAPGKETELVAAISRDGSTNYADSVKGRFTISRDNAKNTVYLQMNSLKPEDTAFYYCATDSYPWGRSTGWRKQKGYYWGQGTKVTVSS | high polyreactivity |
| QVQLVESGGGLVQAGGTLRLSCAASGYIFDRNAMGWYRPAPGKERELVAAITKRGGSTYYADSVKGRFTISRDNAKNTVYLQMNSLKPEETAVYYCNALARSSRYDYWGQGTQVTVSS | low polyreactivity |
| QVQLVESGGGLVQAGGSLRLSCAASGLIFHQYAMGWYRQAPGKERELVAAITRSGTRTYYADSVKGRFTISRDNAKNTVYLQMNSLKPEDTAVYYCNKALRTYPLFYYWGQGTQVTVSS | high polyreactivity |
| QVQLVESGGGLVQAGGSLRLSCSASGSIFGFYAMGWYRQEPGKERELVAAIDSGDSTNYADSVKGRFTISRDNAKNTVYLQMNSLKPEDTAVYYCNARYTLFARYGYDYWGQGTQVTVSS | low polyreactivity |
